One series addresses T1, DC-SIGN ECD M270F (Homo sapiens, UniProt Q9NNX6, M270F).
T1 construct: acids 64 -404 of DC -SIGN; made in house
T1 sequence (Q9NNX6 64-404 M270F): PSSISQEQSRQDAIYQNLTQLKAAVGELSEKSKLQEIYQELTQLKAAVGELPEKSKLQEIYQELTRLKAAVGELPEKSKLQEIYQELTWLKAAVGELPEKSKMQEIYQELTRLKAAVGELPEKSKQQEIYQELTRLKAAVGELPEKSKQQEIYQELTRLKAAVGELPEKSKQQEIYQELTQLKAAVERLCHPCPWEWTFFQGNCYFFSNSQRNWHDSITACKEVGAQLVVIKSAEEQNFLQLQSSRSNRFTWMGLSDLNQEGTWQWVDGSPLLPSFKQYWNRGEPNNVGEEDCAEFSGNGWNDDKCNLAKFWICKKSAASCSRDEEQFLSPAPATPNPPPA
The experiment in a line: Plate-based horseradish peroxidase assay. The class given is binding. Here is the method:
(§1) chromatography. Purified protein was dialyzed against 25 mM HEPES, 150 mM NaCl, 10 mM CaCl2, pH 7.4, concentrated using a centrifugal spin filter, snap frozen and then stored at -80°C. […]
(§2) Plate-based horseradish peroxidase assay
(§3) General remarks. Unless stated otherwise, all reagents and buffers were obtained from Sigma Aldrich or Carl Roth. Measurements were done on a Enspire Multimode Plate Reader (PerkinElmer). GraphPad Prism was used for all data processing and analysis.
(§4) CaCl2 titration. 100 µg mL-1 DC-SIGN ECD were immobilized in immobilization buffer (25 mM HEPES, 150 mM NaCl, 25 mM CaCl 2, pH 7.4) overnight at 4°C on transparent Nunc Maxisorp 96-well plates (Thermo Fisher). Protein solution was removed, and plates were washed three times with immobilization buffer and then blocked for 2 hours at 4°C with blocking buffer (25 mM HEPES, 150 mM NaCl, 25 mM CaCl 2, 2% BSA, 0.01% Tween -20). Plates were washed twice with 25 mM HEPES, 150 mM NaCl, 5 mM EDTA, pH 7.4 and twice with 25 mM HEPES, 150 mM NaCl, pH 7.4 to remove residual Ca 2+. To titrate Ca2+, CaCl2 in 25 mM HEPES, 150 mM NaCl, pH 7.4 was serially diluted on the plate at a constant HRP concentration of 1 µg mL-1 and then incubated at RT for 2 hours. Following incubation, plates were washed three times with 25 mM HEPES, 150 mM NaCl, pH 7.4 and bound HRP was detected using a TMB substrate kit (Thermo Fisher) and 0.18 M H2SO4 according to manufacturer’s instructions. Absorption was […]
(§5) HRP titration. Immobilization and blocking were done as described above. After blocking, plates were washed three times with immobilization buffer. HRP in immobilization buffer was serially diluted on the plate at a constant concentration CaCl2 concentration of 25 mM and then incubated […]
(§6) at RT for 2 hours. Following incubation, plates were washed three times with immobilization buffer and HRP was detected as described above.
(§7) Immobilization and blocking were done as described above. After blocking, plates were washed three times with immobilization buffer. Mannose in immobilization buffer containing 1 µg mL-1 HRP was serially diluted on the plate and then incubated at RT for 2 hours.
(§8) Following incubation, plates were washed three times with immobilization buffer and HRP was detected as described above.
(§9) All conditions were measured in technical triplicates, averaged and normalized to the control well […]
(§10) IC50 and EC50 values and hill […]
(§11) slopes (nH) were obtained in a four-parameter fit according to equation (1).
(§12) Y = bottom + top − bottom (1)
(§13) With bottom and top representing the minimal and maximal response plateaus, respectively, Y as the observed response and X the logarithmic concentration of the ligand . […]
(§14) Biosynth. Spectra were processed in TopSpin 4.2.0 and data analysis was performed using CCPN Analysis 3.2.0 for 2D spectra and in MestreNova for 1D spectra.2 Further analysis was done using GraphPad Prism and in-house python scripts.

In the next series the target is T2, DC-SIGN ECD wildtype (Homo sapiens, UniProt Q9NNX6).
T2 construct: acids 64 -404 of DC -SIGN; made in house
T2 sequence (Q9NNX6 64-404): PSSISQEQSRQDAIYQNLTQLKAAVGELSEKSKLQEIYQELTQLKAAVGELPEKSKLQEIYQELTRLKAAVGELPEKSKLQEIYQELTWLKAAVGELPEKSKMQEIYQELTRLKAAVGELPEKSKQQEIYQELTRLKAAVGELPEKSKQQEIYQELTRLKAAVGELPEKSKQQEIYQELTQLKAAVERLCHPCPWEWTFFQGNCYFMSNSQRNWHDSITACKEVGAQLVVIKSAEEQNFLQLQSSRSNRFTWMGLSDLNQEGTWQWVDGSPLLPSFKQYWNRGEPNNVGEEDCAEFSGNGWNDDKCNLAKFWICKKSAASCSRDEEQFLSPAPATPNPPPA
The experiment in a line: Plate-based horseradish peroxidase assay. It counts as binding. The following applies: saturating CaCl2 (25 mM), plate-immobilized ECD. The method, then: as §1, §2, §3, §4, §5, §6, §7, §8, §9, §10, §11, §12, §13, §14

A further series concerns the target T3, DC-SIGN ECD T314A (Homo sapiens, UniProt Q9NNX6, T314A).
T3 construct: acids 64 -404 of DC -SIGN; made in house
T3 sequence (Q9NNX6 64-404 T314A): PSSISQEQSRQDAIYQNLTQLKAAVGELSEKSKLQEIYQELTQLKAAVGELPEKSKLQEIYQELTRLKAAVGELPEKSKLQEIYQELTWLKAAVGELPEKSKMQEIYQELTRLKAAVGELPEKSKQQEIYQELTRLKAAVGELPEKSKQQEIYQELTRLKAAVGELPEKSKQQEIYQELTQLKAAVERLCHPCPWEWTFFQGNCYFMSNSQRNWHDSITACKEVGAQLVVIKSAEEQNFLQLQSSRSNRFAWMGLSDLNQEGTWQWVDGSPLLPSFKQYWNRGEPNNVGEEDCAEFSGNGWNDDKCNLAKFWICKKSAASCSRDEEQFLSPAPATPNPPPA
The experiment in a line: Plate-based horseradish peroxidase assay. The class given is binding.

Series [1] deals with the molecule itself. The experiment in a line: dynamic light scattering; purified ECDs; tetrameric state judged from mannan affinity chromatography, DLS and DSF together.
Setting [2] is: HRP titration at saturating CaCl2.
The mark [3] stands for this setting: saturating CaCl2 (25 mM), plate-immobilized ECD.

In general, stoichiometry N refers to a count of units in the complex or per binding partner.

Turning to horseradish peroxidase [HRP], the “increased affinity compared to the wildtype” value at DC-SIGN ECD M270F (setting [2]) worked out at 10 fold. Also, the “EC50 (mean ± SD), HRP titration” value was found to be 0.2 ± 0.2 μg mL^–1 with DC-SIGN ECD M270F (setting [3]), 1.8 ± 1.0 µg/mL at DC-SIGN ECD wildtype and 8.6 ± 0.1 μg mL^–1 with DC-SIGN ECD T314A (setting [3]). Further, the “decreased affinity compared to the wildtype” value on DC-SIGN ECD T314A (setting [2]) worked out at 4 fold.

B1: DC-SIGN extracellular domain (ECD) M270F (receptor, UniProt Q9NNX6 59-404, looked up)
chain: QVSKVPSSISQEQSRQDAIYQNLTQLKAAVGELSEKSKLQEIYQELTQLKAAVGELPEKSKLQEIYQELTRLKAAVGELPEKSKLQEIYQELTWLKAAVGELPEKSKMQEIYQELTRLKAAVGELPEKSKQQEIYQELTRLKAAVGELPEKSKQQEIYQELTRLKAAVGELPEKSKQQEIYQELTQLKAAVERLCHPCPWEWTFFQGNCYFFSNSQRNWHDSITACKEVGAQLVVIKSAEEQNFLQLQSSRSNRFTWMGLSDLNQEGTWQWVDGSPLLPSFKQYWNRGEPNNVGEEDCAEFSGNGWNDDKCNLAKFWICKKSAASCSRDEEQFLSPAPATPNPPPA
notes: DC-SIGN (CD209), extracellular domain with the point mutation M270F
With B1, in series [1], the “stoichiometry N” value amounted to 4.

B2: DC-SIGN extracellular domain (ECD) T314A (receptor, UniProt Q9NNX6 59-404, looked up)
chain: QVSKVPSSISQEQSRQDAIYQNLTQLKAAVGELSEKSKLQEIYQELTQLKAAVGELPEKSKLQEIYQELTRLKAAVGELPEKSKLQEIYQELTWLKAAVGELPEKSKMQEIYQELTRLKAAVGELPEKSKQQEIYQELTRLKAAVGELPEKSKQQEIYQELTRLKAAVGELPEKSKQQEIYQELTQLKAAVERLCHPCPWEWTFFQGNCYFMSNSQRNWHDSITACKEVGAQLVVIKSAEEQNFLQLQSSRSNRFAWMGLSDLNQEGTWQWVDGSPLLPSFKQYWNRGEPNNVGEEDCAEFSGNGWNDDKCNLAKFWICKKSAASCSRDEEQFLSPAPATPNPPPA
notes: DC-SIGN (CD209), extracellular domain with the point mutation T314A
B2: the “stoichiometry N” value in series [1] was found to be 4.

Source of the values: article PMC12933331, “A Cryptic Pocket Allosterically Modulates Oligosaccharide Binding to DC-SIGN” (JACS Au, 2026).
